Data published in the supplement of paper PMC12764529.
± gives the half width of the 95% confidence interval.

Columns and labels:
[1] = folding stability dG unfold (combined trypsin and chymotrypsin); higher = more stable
In short: (§1)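 Sequencing followed digestion of designed mini-proteins with trypsin and chymotrypsin, each at 11 concentrations in threefold dilutions together with a no-protease condition. The mini-proteins were under 80 residues, had no cysteine, sat in a PA-tagged cDNA display construct, and were kept only if AlphaFold2 dimer inter-PAE was above 15. From the counts, Bayesian fitting gave K50, and unfolding free energy was derived against a sequence-predicted unfolded-state K50 and a shared folded-state K50, per protease or combined.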

[2] = folding stability dG unfold from trypsin proteolysis; higher = more stable
In short: as §1

[3] = folding stability dG unfold from chymotrypsin proteolysis; higher = more stable
In short: as §1

Sequence	folding stability dG unfold [1] [kcal/mol]	folding stability dG unfold [2] [kcal/mol]	folding stability dG unfold [3] [kcal/mol]
SMKEPPKVTIEIEYDEETETVRVRITLEDGTEIEVEVEAENKEEALREAIREALKKIFPELTDEQIEKLLSA [r9_634_TrROS_Hall]	2.72 ± 0.29	3.45 ± 0.24	1.58 ± 0.11
SMKIEIIERNEDGEYVLVRITFEDGEEITIVAKTEEEAKEAAKEIAKELFPDVKIKKIEVVPLEDLPEELSA [r9_137_TrROS_Hall]	1 ± 0.31	1.62 ± 0.14	0.251 ± 0.37
SMKIEVEKLEDGTYVITIEDPGEDDIPVTYKAVVFVDPETGKVYVDRNIEDPNVPPELKELFENFIPGIESA [r9_715_TrMRF]	2.92 ± 0.056	2.5 ± 0.094	3.097 ± 0.018
SMKIKIEKVEDGYYKIKIYDKKTKKEYTIIVPKNMKPGQVELVNRNGKKITMTLEEIKKLLPPGAEVEIVSA [r9_250_TrROS_Hall]	2.21 ± 0.1	2.01 ± 0.074	2.14 ± 0.051
SMKIKIEPLPDGSYRLVAEVPEDAEETENLFPLTGKPIVVKREKNKLVIEFDNPEEVELFAEALKKNIPLSA [r9_515_TrMRF]	1.47 ± 0.12	1.28 ± 0.032	1.54 ± 0.084
SMKILNDPNIKKVIPVFLMLMSPEEFKKLAEKLANGIKKELEEKGFPIPKDIEIKIIPFKSPEELKKALKSA [r9_204_TrMRF]	1.93 ± 0.14	1.29 ± 0.039	2.31 ± 0.11
SMKINVVINITLPDGTTVTSTLNLTESEIEKTIKEKIPSSYKVEITKKDPVDPAKLPPGSSINVDLTVNLSA [r9_803_JUSTAS]	1.59 ± 0.22	1.31 ± 0.079	1.69 ± 0.15
SMKISSFTLAPGGEAVIELTFESGETRRVRLTGLTSKAEVEAEAKRLQEELEKGNPRPIKTVTVSPAPPASA [r9_1135_JUSTAS]	1 ± 0.094	1.14 ± 0.064	0.768 ± 0.24
SMKITIVNKNGEKKEIEVTAKDGKKYKITVFKDKELVIKVEETTPDGKKKPVKVIKAKSLEEALEALKKASA [r9_942_TrROS_Hall]	2.38 ± 0.32	2.17 ± 0.14	2.83 ± 0.057
SMKIVKIEIEKIEIYSDEEFAKKTGIKPEAIYKNGKKKKVIKIPVKITLYDEKKGEKKEFEAEITIVIDVSA [r9_382_TrMRF]	2.2 ± 0.38	1.56 ± 0.15	2.61 ± 0.19
SMKLKLYDPATGKWYELTYDPAKGTVTITYPDGKVITRPVKSIEVNPETGTITITFPDSTETFTVPESLISA [r9_325_JUSTAS]	3.79 ± 0.066	3.42 ± 0.089	3.934 ± 0.031
SMKLKPGQTAKIVEIKENYIYIEVNGKKYKISLEELKEKGYEIKIVNGKIVEIRPKPKKKLSEEELKKLKSA [r9_842_TrROS_Hall]	1.16 ± 0.15	1.13 ± 0.077	1.04 ± 0.16
SMKPGDKLLIRIRLPPVKVEREYFDKDGKLVKKETKEVKEVELVIELSPEELEKLRELLKELGFEVEILPSA [r9_167_TrROS_Hall]	2.5 ± 0.16	2.83 ± 0.16	2.4 ± 0.055
SMKPGDVKVIEIEVEYPWPPGDPEKAKEKVRDLVNSIMQEHGYDVDIPVEIEPRDGRYRVEVPIIIRPPNSA [r9_889_TrROS]	-0.409 ± 0.25	0.0547 ± 0.069	-0.771 ± 0.36
SMKPGETVTLEVVIRVKKENMTLEEIAEEVANAIKALLPPGAKITIEVVDIEYDEETDEVYVKLKITIENSA [r9_706_TrROS_Hall]	3.01 ± 0.32	4.17 ± 0.28	2.64 ± 0.23
SMKPPVKVRIRIYNPETGEEIATIEIEFLPDGTVKVTIEIDGKKYEIEMSLDELLEALKKLPFKIVEIEPSA [r9_470_TrROS_Hall]	3.57 ± 0.1	3.72 ± 0.12	3.35 ± 0.064
SMKRVLILVPDPSVDKEELIEELKKKGFEDIEVVDSEEELKKLPENIDVVVIVRDGEVEVREVPPVEALKSA [r9_750_JUSTAS]	0.706 ± 0.11	0.698 ± 0.037	0.585 ± 0.1
SMKTLIVEGMTPEEIRALAEEAAKKGEEVEIEIVVKDNEEIKEALEEAGVEVEEVEDPETKEKVLKVTVKSA [r9_759_TrROS_Hall]	0.327 ± 0.14	0.254 ± 0.044	0.412 ± 0.072
SMKVEIPPELVEAIEKALAEKKPGEEVEIEFEHPDGPLIRVRIEKDGRVRIEVFEHPDKLIAEFEFEPKPSA [r9_132_TrMRF]	3.14 ± 0.077	3.31 ± 0.095	2.98 ± 0.087
SMKYRITLTITKGDEDIVVEIETESEEEAKEKFKKAISPELLKALPEDAKVEITVEPEPLVIPEPGVPLPSA [r9_111_JUSTAS]	0.995 ± 0.062	0.465 ± 0.038	1.22 ± 0.12
SMLEEVLERIEAMPPGSVVKVTLTFPDGTKRTETLKLSAEEVKEKLEKIKKENPDIKIEVKVEVYSTEEESA [r9_37_JUSTAS]	4.39 ± 0.42	3.33 ± 0.39	4.05 ± 0.36
SMLEKIEKAIESGNDGILVPLKLTPEEFKKVRAYLEELGFTLLSEEELAVGPVPVYELTFKVNTKTGEAASA [r9_498_JUSTAS]	2.17 ± 0.13	1.88 ± 0.066	2.44 ± 0.1
SMLNIPSDWKVITIKLEYKVEPGVSEEEVKEKAIEELKKKFPKNTKIEVEVTPDPETGTVTIKITIIIKKSA [r9_657_JUSTAS]	1.84 ± 0.1	2.15 ± 0.062	1.38 ± 0.056
SMMKIRIVNKETKEEIEEIEIEKNEDGSYTIKIKIKKNGKTYEIEIKLPKGMKIEELLKKLGIEKAEIEPSA [r9_492_TrROS_Hall]	1.79 ± 0.11	1.55 ± 0.049	1.98 ± 0.11
SMMYLVKIKVRNKETGELVEEIELVVESEEEAEKIAEELAEELGLEVEVEVKRISPEELEDPEILKELLESA [r9_864_TrROS_Hall]	3.27 ± 0.23	2.77 ± 0.13	3.53 ± 0.088
SMMYLVNLRVEVYKDGKLVEEKEIAIAAPVEEALKIAEAIKESHPDAEVKVEIEVYEIPEDDPEFKEAFASA [r9_782_TrMRF]	2.68 ± 0.089	2.25 ± 0.082	2.87 ± 0.033
